Test results published in the supplement of paper PMC7125110.
± gives the standard error. Variants at the floor of the assay were thinned out.

B1: glmS ribozyme (parent)
chain: AUAAAAGCGCCAGAACUACAGAAAUGUAGUUGACGAGGAGGAGGUUUAUCGAAUUUUCGGCGGAUGCCUCCAAA

Key:
Settings in all cases: with glucosamine-6-phosphate
glucosamine-6-phosphate [1] = variants of: B1; assay: self-cleavage kobs at 40 uM GlcN6P; higher = faster cleavage; RNA array
Procedure, shortened: (§1)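 E. coli RNA polymerase transcribed barcoded ribozyme variants in situ on sequenced MiSeq chips, which were tracked via a hybridised Cy3 probe at 37 °C. Tiles were imaged over ~14 h after glucosamine-6-phosphate (40 μM to 10 mM) in HEPES/KCl/Mg(OAc)2 buffer was flowed in. Normalised per-tile medians were fit to one- or two-exponential decays for kobs, and kcat and KM came from weighted Michaelis–Menten fits.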

glucosamine-6-phosphate [2] = variants of: B1; assay: self-cleavage kobs at 640 uM GlcN6P; higher = faster cleavage; RNA array
Procedure, shortened: as §1

glucosamine-6-phosphate [3] = variants of: B1; assay: self-cleavage kobs at 10000 uM GlcN6P; higher = faster cleavage; RNA array
Procedure, shortened: as §1

glucosamine-6-phosphate [4] = variants of: B1; assay: self-cleavage kobs at 160 uM GlcN6P; higher = faster cleavage; RNA array
Procedure, shortened: as §1

glucosamine-6-phosphate [5] = variants of: B1; assay: self-cleavage kobs at 2500 uM GlcN6P; higher = faster cleavage; RNA array
Procedure, shortened: as §1

Variant | self-cleavage kobs at 40 uM GlcN6P (glucosamine-6-phosphate [1]) | self-cleavage kobs at 640 uM GlcN6P (glucosamine-6-phosphate [2]) | self-cleavage kobs at 10000 uM GlcN6P (glucosamine-6-phosphate [3]) | self-cleavage kobs at 160 uM GlcN6P (glucosamine-6-phosphate [4]) | self-cleavage kobs at 2500 uM GlcN6P (glucosamine-6-phosphate [5])
AUAAAAGCGCCAGAACUACAGAAAUGUAUUUGACGAGGAGGAGGUUUAUCCAAUUUUCGGCGGAUGCCUCCAAA [G29U G51C] | < 1e-05 s⁻¹ | < 1e-05 s⁻¹ | < 1e-05 s⁻¹ | – | –
AUAAAAGCGCCAGAACUACAGAAAUGUAUUUGAAGAGGAGGAGGUUUAUCGAAUUUUCGGUGGAUGCCUCCAAA [G29U C34A C61U] | < 1e-05 s⁻¹ | < 1e-05 s⁻¹ | – | – | –
AUAAAAGCGCCAGAACUACAGAAAUGUAUUCGACGAGGAGGAGGUUUCUCGAAUUUUCGGCGGAUGCCUCCAAA [G29U U31C A48C] | < 1e-05 s⁻¹ | – | < 1e-05 s⁻¹ | – | –
AUAAAAGCGCCAGAACUACAGAAAUGUAUUUGACGAGGAGGAGGUUUAUGGAGUGUUCGGCGGAUGGCUCCAAA [G29U C50G A53G U55G C67G] | 0.000349 ± 0.00015 s⁻¹ | – | – | – | –
AUAAAAGCGCCAGAACUACAGAAAUGUAUGUGACGAGGAGGAGGUUUAUCGAAAUUUCGGCGGAUGCCUCCAAA [G29U U30G U54A] | 9.91e-05 ± 2.6e-05 s⁻¹ | – | 0.00383 ± 0.00068 s⁻¹ | – | –
AUAAAAGCGCCAGAACUACAGAAAUGUAUUUGAUGAGGAGGCGGUUUAUCGAAUUUUCGGCGGAUGCCUCCAAA [G29U C34U A42C] | < 1e-05 s⁻¹ | < 1e-05 s⁻¹ | < 1e-05 s⁻¹ | < 1e-05 s⁻¹ | < 1e-05 s⁻¹
AUAAAAGCGCCAGAACUACAGAAAUGUAUUUGACGAGGGGGAGGUUUAUCGAAUUUUCGGCGGUUGCCUCCAAA [G29U A39G A64U] | < 1e-05 s⁻¹ | – | – | – | –
AUAAAAGCGCCAGAACUACAGAAAUGUAUUUGACGAGGAAGAGGAUUAUCGAAUUUUCGGCGGAUGCCUCCAAA [G29U G40A U45A] | 5.2e-05 ± 1.6e-05 s⁻¹ | 0.00011 ± 2.8e-05 s⁻¹ | 0.000439 ± 0.00011 s⁻¹ | – | 0.000444 ± 8.6e-05 s⁻¹
AUAAAAGCGCCAGAACUACAGAAAUGUAUUUGACGAGGAGGAGGUUUAUGGAAUUUUCGUCGGAUGACUCCAAA [G29U C50G G60U C67A] | 9.35e-05 ± 1.9e-05 s⁻¹ | – | 0.000133 ± 3e-05 s⁻¹ | – | –
AUAAAAGCGCCAGAACUACAGAAAUGUAUUUGACGAGGAGGAGGUGUAUCGAAUUUUGGGCGGAUGACUCCAAA [G29U U46G C58G C67A] | 4.15e-05 ± 1.9e-05 s⁻¹ | – | 5.63e-05 ± 1.4e-05 s⁻¹ | – | –
AUAAAAGCGCCAGAACUACAGAAAUGUAUUUGACGCGAAAGAGGUUUAUCGAAUUUUCGGCGGAUGCCUCCAAA [G29U A36C G38A G40A] | < 1e-05 s⁻¹ | – | < 1e-05 s⁻¹ | – | < 1e-05 s⁻¹
AUAAAAGCGCCAGAACUACAGAAAUGUACUUGACGAGGAGGAGGUUUAUCGAAUUUUCGGCGGAGGUCUCCAAA [G29C U65G C67U] | < 1e-05 s⁻¹ | – | 0.000105 ± 3e-05 s⁻¹ | – | –
AUAAAAGCGCCAGAACUACAGAAAUGUAUUUGAAGAGGAGGAGGUUUAUCGAAUUUUCGGCGGAUGCCUCCAAA [G29U C34A] | < 1e-05 s⁻¹ | – | < 1e-05 s⁻¹ | < 1e-05 s⁻¹ | < 1e-05 s⁻¹
AUAAAAGCGCCAGAACUACAGAAAUGUACUUGACGAGGAGGAGGUUUAUCGAAGUUUCGACGGAUGCCUCCAAA [G29C U54G G60A] | < 1e-05 s⁻¹ | – | < 1e-05 s⁻¹ | – | –
AUAAAAGCGCCAGAACUACAGAAAUGUAUUUGACGAGGAGGUGGUUUAUCGAAUUUUCGGCGGAUGCCUCCAAA [G29U A42U] | < 1e-05 s⁻¹ | < 1e-05 s⁻¹ | 2.15e-05 ± 1.1e-05 s⁻¹ | – | –
AUAAAAGCGCCAGAACUACAGAAAUGUAUGUGAUGAGGAGGAGGUUUAUCGAAUUUUCGGCGGAUGCCUCCAAA [G29U U30G C34U] | < 1e-05 s⁻¹ | – | < 1e-05 s⁻¹ | – | –
AUAAAAGCGCCAGAACUACAGAAAUGUACUUGACGAGGAGGAGGCUUAUCGAAUUUUCGGCAGAUGCCUCCAAA [G29C U45C G62A] | < 1e-05 s⁻¹ | – | – | – | < 1e-05 s⁻¹

Variant | self-cleavage kobs at 40 uM GlcN6P (glucosamine-6-phosphate [1]) | self-cleavage kobs at 640 uM GlcN6P (glucosamine-6-phosphate [2]) | self-cleavage kobs at 10000 uM GlcN6P (glucosamine-6-phosphate [3]) | self-cleavage kobs at 160 uM GlcN6P (glucosamine-6-phosphate [4]) | self-cleavage kobs at 2500 uM GlcN6P (glucosamine-6-phosphate [5])
AUAAAAGCGCCAGAACUACAGAAAUGUAGAUGACGAGGUGGAGGUUUAUCAAAUUUUCGGCGGGUGCCUCCAAA [U30A A39U G51A A64G] | < 1e-05 s⁻¹ | – | < 1e-05 s⁻¹ | – | –
AUAAAAGCGCCAGAACUACAGAAAUGUAUUUGACGAGGAGGAGGUUUAUCGAAUUUUCGGCGUAUGCCUCCAAA [G29U G63U] | < 1e-05 s⁻¹ | < 1e-05 s⁻¹ | < 1e-05 s⁻¹ | < 1e-05 s⁻¹ | –
AUAAAAGCGCCAGAACUACAGAAAUGUACUUGACGAGGAGGAGGUUUAUCGAAUUUUCGGCGGAUGCAUCCAAA [G29C C68A] | < 1e-05 s⁻¹ | – | – | – | –
AUAAAAGCGCCAGAACUACAGAAAUGUAUUAGACGAGGAGGUGGUUUAUCGAAUUUUCGGCGGAUGCCUCCAAA [G29U U31A A42U] | < 1e-05 s⁻¹ | – | – | – | –
AUAAAAGCGCCAGAACUACAGAAAUGUAUUUGACGGGGAGGAGGUUUCUCGAAUUUUCGGCGGAUGCCUCGAAA [G29U A36G A48C C71G] | < 1e-05 s⁻¹ | – | – | – | –
AUAAAAGCGCCAGAACUACAGAAAUGUACCUGCCGAGGAGGGGGUUUAUCGAAUAAUCGGCGGAUGCCUCCAAA [G29C U30C A33C A42G U55A U56A] | < 1e-05 s⁻¹ | – | < 1e-05 s⁻¹ | – | –
AUAAAAGCGCCAGAACUACAGAAAUGUACUUGACUAGGAGGAGGUUUAUCGAAUUUUUGGCGGAUGCCUCCAAA [G29C G35U C58U] | < 1e-05 s⁻¹ | – | – | – | –
AUAAAAGCGCCAGAACUACAGAAAUGUACUUGACGAGGAGGAGGUUUAUCUAAUGUUCGGCGGAUGCCUCCAAA [G29C G51U U55G] | < 1e-05 s⁻¹ | – | < 1e-05 s⁻¹ | – | –
AUAAAAGCGCCAGAACUACAGAAAUGUACUUGACGAGGAGGAGGUUUAUCGAAUUUUCGGUGGAUGCCUCCAAA [G29C C61U] | < 1e-05 s⁻¹ | – | – | – | –
AUAAAAGCGCCAGAACUACAGAAAUGUAUUUGACGAGGAGGGGGUUUAUCGAAUUCUCGGCGAAUGCCUCCAAA [G29U A42G U56C G63A] | < 1e-05 s⁻¹ | – | < 1e-05 s⁻¹ | – | –
AUAAAAGCGCCAGAACUACAGAAAUGUAUUUGACGAGGAGAAGGUUUAUCGAAUUUUCGGCGGAUGCCUCGAAA [G29U G41A C71G] | < 1e-05 s⁻¹ | – | – | – | –
AUAAAAGCGCCAGAACUACAGAAAUGUACUUGACGAGGAGGAGGUUUAUCGAAUUUUCGGCGGAUGCCUUCAAA [G29C C70U] | 8.66e-05 ± 9.8e-06 s⁻¹ | 0.000243 ± 2.2e-05 s⁻¹ | 0.000815 ± 0.00013 s⁻¹ | 0.000143 ± 1.8e-05 s⁻¹ | 0.00103 ± 0.00018 s⁻¹
AUAAAAGCGCCAGAACUACAGAAAUGUACCUGACGAGCAGGAGAUUUCUCGAAUGUUCGGCGGAUGCCUCCAAA [G29C U30C G38C G44A A48C U55G] | < 1e-05 s⁻¹ | – | < 1e-05 s⁻¹ | – | < 1e-05 s⁻¹
AUAAAAGCGCCAGAACUACAGAAAUGUAUUUGACGAGGAGGAGGUGUAUUGAAUUUUCGUCGGAUUCCUCCAAA [G29U U46G C50U G60U G66U] | < 1e-05 s⁻¹ | – | – | – | –
AUAAAAGCGCCAGAACUACAGAAAUGUACUCGACGAAGAGGAGGUUUAUCGAAUUUUCGGCGGAUGACUCCAAA [G29C U31C G37A C67A] | < 1e-05 s⁻¹ | – | < 1e-05 s⁻¹ | – | < 1e-05 s⁻¹
AUAAAAGCGCCAGAACUACAGAAAUGUAUUUGACUGGGAGGAGGUUUAUCGAAUUUUCGGCGGAUGCCUCCAAA [G29U G35U A36G] | < 1e-05 s⁻¹ | – | – | – | –
AUAAAAGCGCCAGAACUACAGAAAUGUACUAGACGAGGAGGAGGUAUAUCGACUUUUCGGCGGAUGCCUCUAAA [G29C U31A U46A A53C C71U] | < 1e-05 s⁻¹ | – | – | – | –
